Measurements as given in the supplement of paper PMC10567573.

B1: KLHL14 (parent)
chain: WLYCYDPVMDVWARKQDMNTKRAI
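Also: lentivirally expressed fusions sorted by FACS into six bins by GFP to DsRed ratio, PSI derived from sequencing read proportions per bin multiplied by bin number.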

Variants of: B1
Assay: protein stability index of a GFP-peptide fusion (GPS, HEK-293T) (PSI 1-6); higher = more stable
Conditions: c terminus: a fixed tail appended
WLYCYDPVMDVWARKQDMRTKRAI [N19R] showed a protein stability index of 1.83. For WLYCYDPVMDVWARKQDMQTKRAI [N19Q], the protein stability index was 2.2. WLYCYDPVMDVWARKQDMCTKRAI [N19C] showed a protein stability index of 1.76. With WLYCYDPVMDVWARKQDMTTKRAI [N19T] the protein stability index was 1.88. WLYCYDPVMDVWARKQDMLTKRAI [N19L] showed a protein stability index of 2.05. WLYCYDPVMDVWARKQDMKTKRAI [N19K] gave a protein stability index of 2.02. WLYCYDPVMDVWARKQDMDTKRAI [N19D] gave a protein stability index of 2.27. WLYCYDPVMDVWARKQDMYTKRAI [N19Y] showed a protein stability index of 1.72. WLYCYDPVMDVWARKQDMFTKRAI [N19F] gave a protein stability index of 1.52. In the case of WLYCYDPVMDVWARKQDMHTKRAI [N19H], the protein stability index is reported as 1.57. Work on WLYCYDPVMDVWARKQDMSTKRAI [N19S] yielded a protein stability index of 1.83. With WLYCYDPVMDVWARKQDMATKRAI [N19A] the protein stability index was 1.59. WLYCYDPVMDVWARKQDMMTKRAI [N19M] showed a protein stability index of 2.13. Variant WLYCYDPVMDVWARKQDMVTKRAI [N19V] has a protein stability index of 2.55. WLYCYDPVMDVWARKQDMETKRAI [N19E] gave a protein stability index of 1.81. Variant WLYCYDPVMDVWARKQDMITKRAI [N19I] has a protein stability index of 1.57. Work on WLYCYDPVMDVWARKQDMGTKRAI [N19G] yielded a protein stability index of 2. With WLYCYDPVMDVWARKQDMWTKRAI [N19W] the protein stability index was 2.53. Variant WLYCYDPVMDVWARKQDMPTKRAI [N19P] has a protein stability index of 1.93. For WLYCYDPVMDVWARKQDMNHKRAI [T20H], the protein stability index was 1.88. WLYCYDPVMDVWARKQDMNVKRAI [T20V] gave a protein stability index of 2.11. Work on WLYCYDPVMDVWARKQDMNGKRAI [T20G] yielded a protein stability index of 2.57. With WLYCYDPVMDVWARKQDMNSKRAI [T20S] the protein stability index was 1.99. WLYCYDPVMDVWARKQDMNIKRAI [T20I] showed a protein stability index of 1.91. Work on WLYCYDPVMDVWARKQDMNLKRAI [T20L] yielded a protein stability index of 2.28. For WLYCYDPVMDVWARKQDMNMKRAI [T20M], the protein stability index was 1.7. For WLYCYDPVMDVWARKQDMNNKRAI [T20N], the protein stability index was 1.85. In the case of WLYCYDPVMDVWARKQDMNYKRAI [T20Y], the protein stability index is reported as 2.02. For WLYCYDPVMDVWARKQDMNWKRAI [T20W], the protein stability index was 2.34. Work on WLYCYDPVMDVWARKQDMNFKRAI [T20F] yielded a protein stability index of 1.44. Work on WLYCYDPVMDVWARKQDMNCKRAI [T20C] yielded a protein stability index of 1.62. WLYCYDPVMDVWARKQDMNEKRAI [T20E] gave a protein stability index of 1.95. For WLYCYDPVMDVWARKQDMNRKRAI [T20R], the protein stability index was 1.77. In the case of WLYCYDPVMDVWARKQDMNKKRAI [T20K], the protein stability index is reported as 2.15. WLYCYDPVMDVWARKQDMNPKRAI [T20P] gave a protein stability index of 2. Variant WLYCYDPVMDVWARKQDMNAKRAI [T20A] has a protein stability index of 2.07. Work on WLYCYDPVMDVWARKQDMNDKRAI [T20D] yielded a protein stability index of 2.15. For WLYCYDPVMDVWARKQDMNQKRAI [T20Q], the protein stability index was 1.99. In the case of WLYCYDPVMDVWARKQTMNTKRAI [D17T], the protein stability index is reported as 1.78. With WLYCYDPVMDVWARKQYMNTKRAI [D17Y] the protein stability index was 1.67. With WLYCYDPVMDVWARKQHMNTKRAI [D17H] the protein stability index was 2.21. WLYCYDPVMDVWARKQCMNTKRAI [D17C] gave a protein stability index of 1.74. For WLYCYDPVMDVWARKQQMNTKRAI [D17Q], the protein stability index was 2.06. In the case of WLYCYDPVMDVWARKQWMNTKRAI [D17W], the protein stability index is reported as 2.58. For WLYCYDPVMDVWARKQLMNTKRAI [D17L], the protein stability index was 2.48. Variant WLYCYDPVMDVWARKQSMNTKRAI [D17S] has a protein stability index of 2.38. With WLYCYDPVMDVWARKQKMNTKRAI [D17K] the protein stability index was 1.65. WLYCYDPVMDVWARKQVMNTKRAI [D17V] showed a protein stability index of 2.06. WLYCYDPVMDVWARKQPMNTKRAI [D17P] showed a protein stability index of 2.16. Work on WLYCYDPVMDVWARKQEMNTKRAI [D17E] yielded a protein stability index of 1.8. In the case of WLYCYDPVMDVWARKQFMNTKRAI [D17F], the protein stability index is reported as 2.24. In the case of WLYCYDPVMDVWARKQMMNTKRAI [D17M], the protein stability index is reported as 2.2. In the case of WLYCYDPVMDVWARKQIMNTKRAI [D17I], the protein stability index is reported as 1.94. For WLYCYDPVMDVWARKQAMNTKRAI [D17A], the protein stability index was 2.33. With WLYCYDPVMDVWARKQGMNTKRAI [D17G] the protein stability index was 1.97. WLYCYDPVMDVWARKQNMNTKRAI [D17N] showed a protein stability index of 1.91. Variant WLYCYDPVMDVWARKQRMNTKRAI [D17R] has a protein stability index of 2.34. Work on WLYCYDPVMDVWARKQDMNTGRAI [K21G] yielded a protein stability index of 2.61. In the case of WLYCYDPVMDVWARKQDMNTARAI [K21A], the protein stability index is reported as 1.78. WLYCYDPVMDVWARKQDMNTRRAI [K21R] gave a protein stability index of 1.83. WLYCYDPVMDVWARKQDMNTERAI [K21E] gave a protein stability index of 1.91. With WLYCYDPVMDVWARKQDMNTMRAI [K21M] the protein stability index was 2.08. WLYCYDPVMDVWARKQDMNTQRAI [K21Q] gave a protein stability index of 1.86. Work on WLYCYDPVMDVWARKQDMNTCRAI [K21C] yielded a protein stability index of 2.23. Variant WLYCYDPVMDVWARKQDMNTLRAI [K21L] has a protein stability index of 1.88. Variant WLYCYDPVMDVWARKQDMNTSRAI [K21S] has a protein stability index of 1.91. In the case of WLYCYDPVMDVWARKQDMNTHRAI [K21H], the protein stability index is reported as 1.94. Variant WLYCYDPVMDVWARKQDMNTTRAI [K21T] has a protein stability index of 1.83. WLYCYDPVMDVWARKQDMNTFRAI [K21F] gave a protein stability index of 1.86. WLYCYDPVMDVWARKQDMNTDRAI [K21D] showed a protein stability index of 2.34. WLYCYDPVMDVWARKQDMNTPRAI [K21P] gave a protein stability index of 1.58. With WLYCYDPVMDVWARKQDMNTVRAI [K21V] the protein stability index was 1.91. WLYCYDPVMDVWARKQDMNTIRAI [K21I] showed a protein stability index of 1.71. For WLYCYDPVMDVWARKQDMNTWRAI [K21W], the protein stability index was 2.2. WLYCYDPVMDVWARKQDMNTNRAI [K21N] gave a protein stability index of 1.81. Variant WLYCYDPVMDVWARKQDCNTKRAI [M18C] has a protein stability index of 1.86. Variant WLYCYDPVMDVWARKQDINTKRAI [M18I] has a protein stability index of 2.28. WLYCYDPVMDVWARKQDHNTKRAI [M18H] showed a protein stability index of 2.55. In the case of WLYCYDPVMDVWARKQDPNTKRAI [M18P], the protein stability index is reported as 1.98. Work on WLYCYDPVMDVWARKQDKNTKRAI [M18K] yielded a protein stability index of 2.1. In the case of WLYCYDPVMDVWARKQDSNTKRAI [M18S], the protein stability index is reported as 2.39. Work on WLYCYDPVMDVWARKQDVNTKRAI [M18V] yielded a protein stability index of 2.19. For WLYCYDPVMDVWARKQDFNTKRAI [M18F], the protein stability index was 2.56. With WLYCYDPVMDVWARKQDLNTKRAI [M18L] the protein stability index was 1.82. WLYCYDPVMDVWARKQDTNTKRAI [M18T] gave a protein stability index of 2.13. In the case of WLYCYDPVMDVWARKQDWNTKRAI [M18W], the protein stability index is reported as 2.86. In the case of WLYCYDPVMDVWARKQDNNTKRAI [M18N], the protein stability index is reported as 2.77. With WLYCYDPVMDVWARKQDQNTKRAI [M18Q] the protein stability index was 2.08. Work on WLYCYDPVMDVWARKQDYNTKRAI [M18Y] yielded a protein stability index of 2.17. In the case of WLYCYDPVMDVWARKQDRNTKRAI [M18R], the protein stability index is reported as 2.48. WLYCYDPVMDVWARKQDGNTKRAI [M18G] gave a protein stability index of 3.03. With WLYCYDPVMDVWARKQDDNTKRAI [M18D] the protein stability index was 3.05. WLYCYDPVMDVWARKQDENTKRAI [M18E] gave a protein stability index of 2.4. WLYCYDPVMDVWARKQDANTKRAI [M18A] showed a protein stability index of 2.15.
